The chains are these.
B4: TNC III1-5 (other)
chain: EVSPPKDLVVTEVTEETVNLAWDNEMRVTEYLVVYTPTHEGGLEMQFRVPGDQTSTIIQELEPGVEYFIRVFAILENKKSIPVSARVATYLPAPEGLKFKSIKETSVEVEWDPLDIAFETWEIIFRNMNKEDEGEITKSLRRPETSYRQTGLAPGQEYEISLHIVKNNTRGPGLKRVTTTRLDAPSQIEVKDVTDTTALITWFKPLAEIDGIELTYGIKDVPGDRTTIDLTEDENQYSIGNLKPDTEYEVSLISRRGDMSSNPAKETFTTGLDAPRNLRRVSQTDNSITLEWRNGKAAIDSYRIKYAPISGGDHAEVDVPKSQQATTKTTLTGLRPGTEYGIGVSAVKEDKESNPATINAATELDTPKDLQVSETAETSLTLLWKTPLAKFDRYRLNYSLPTGQWVGVQLPRNTTSYVLRGLEPGQEYNVLLTAEKGRHKSKPARVKASTEQAGGGSHHHHHH
notes: The secreted protein in the assays lacks the leader; also called TG-TNC III1-5; engineered TNC III1-5

Assay [1] has as its target B4. Put plainly: SPR, TNC III1-5 on the chip, cytokine injected, BSA reference channel. The protocol:
(§1) Surface plasmon resonance (SPR) was done to quantify the affinity of specific cytokines to TNC III1-5. […] Method: Surface plasmon resonance chips were functionalized with TNC III1-5 or BSA and cytokines were injected over the chips at different concentrations. The chips contained gold with free carboxyl groups that were activated to bind TNC III1-5 in one channel and BSA as a reference protein in another channel. The specific response of a cytokine to TNC III1-5 (in RU) was obtained relative to the response to BSA. Results are depicted in FIG. 5.

Assay [2] addresses B4. Nature of the assay: SPR: TNC III1-5 on the chip, BSA in the reference channel, cytokine injected at rising concentrations; Langmuir fit (legend paragraph 11 says TNC III5, Example 5 paragraph 115 says TNC III1-5). The method, then: as §1
Assay [3] addresses T1, BSA (bovine, UniProt P02769).
T1 construct: negative control; also called bovine serum albumin
Nature of the assay: ELISA: GST-fused TNC domains, GST and BSA coated, 2 nM PDGF-BB in solution, anti-PDGF-BB antibody and HRP secondary, A450. The protocol:
An ELISA was performed to test the affinity of different domains present in TNC1-5 to PDGF-BB as an example cytokine that has shown to bind TNC III1-5. Domain TNC III5 was defined to be responsible for cytokine binding. Method: ELISA plates were coated with individual TNC domains fused to GST, as well as GST and BSA. Wells were blocked with BSA and then incubated with 2 nM PDGF-BB. Binding of PDGF-BB was detected using an anti-PDGF-BB antibody and then a secondary horseradish peroxidase conjugated antibody.

Another assay addresses T2, PlGF-1 (UniProt P49763-2 19-149).
T2 sequence (looked up): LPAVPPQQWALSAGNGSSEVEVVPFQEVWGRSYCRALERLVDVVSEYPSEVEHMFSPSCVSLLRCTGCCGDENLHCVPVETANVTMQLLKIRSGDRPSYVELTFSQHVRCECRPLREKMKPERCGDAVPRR
Nature of the assay: ELISA: growth factor coated, Fg fragment in solution, A450 (methods analogous to Example 3). The protocol: (§2) ELISA plates were coated with cytokines or BSA and further incubated with TNC III1-5 to analyze binding of TNC III1-5 to a wide variety of cytokines. […] A large amount of heparin (4 μM) impaired binding of TNC III1-5 to these cytokines. Results are depicted in FIG. 3. Method: 50 nM of cytokine was coated for (1 hr, 37° C.). After blocking with 2% BSA (1 hr, RT). 100 nM TNC III1-5 was applied in PBST (0.05% tween, 0.1% bovine serum albumin (BSA)) (1 hr, RT). TNC III1-5 was detected with horseradish peroxidase (HRP)-anti-HIS in PBST (1 hr, RT) and developed with 3,3′,5,5′-tetramethylbenzidine (TMB), a soluble colorimetric HRP […]. Addition of sulfuric acid stop solution changes the color to yellow, enabling accurate measurement of the intensity at 450 nm using a spectrophotometer or plate reader. […] Heparin (4 μM) was added to TNC III1-5 to test the effect of blocking the heparin binding site of TNC III1-5, which has been defined as domain TNC III5 (Weber, Zimmermann, et al., 1995).
(§3) ELISA plates were coated with cytokines or BSA and further incubated with Fg β15-66 to analyze binding of […] to a wide variety of cytokines. […] Results are depicted in FIG. 4. Method: The methods were analogous to those used in Example 3.

For a further assay, the target named is T3, FGF-6 (UniProt P10767 38-208, limits assumed).
T3 sequence (looked up): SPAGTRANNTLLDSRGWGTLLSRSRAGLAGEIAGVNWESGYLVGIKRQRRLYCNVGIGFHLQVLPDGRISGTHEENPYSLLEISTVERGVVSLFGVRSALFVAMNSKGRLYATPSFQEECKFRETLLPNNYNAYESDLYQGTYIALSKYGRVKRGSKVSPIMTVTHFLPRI
The description is as above. The method, then:
as §2, §3

The target of a further assay is T4, TGF-β3 (Natural form is a disulfide-linked homodimer; one protomer is given.).
T4 chain: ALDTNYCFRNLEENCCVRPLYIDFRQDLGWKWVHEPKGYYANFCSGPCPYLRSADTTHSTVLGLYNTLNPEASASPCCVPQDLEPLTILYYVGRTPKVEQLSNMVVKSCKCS
Described as above. The method, then:
as §2, §3

The next assay addresses EGF. The assay is described as above. The method, then: as §2, §3
The target in assay [4] is T1, BSA. Put plainly: ELISA: BSA coated as control, Fg fragment in solution, A450 (methods analogous to Example 3). The method, then:
as §2, §3

For a further assay, the target named is FGF-9. Put plainly: ELISA: cytokine coated (50 nM), 100 nM TNC III1-5 in solution, HRP-anti-His, A450. The protocol: as §2
In assay [5] the target is T1, BSA. Put plainly: ELISA: PDGF-BB or BSA coated, TNC III1-5 in solution at 0 to 1.2 µM, A450. The method, then:
as §2, with “100 nM TNC III1-5 was applied in PBST (0.05% tween, 0.1% bovine serum albumin (BSA)) (1 hr, RT).” left out

For the next assay, the target named is HGF (UniProt P14210 32-728). Put plainly: ELISA: cytokine coated (50 nM), 100 nM TNC III1-5 in solution, HRP-anti-His, A450; black bars without, white bars with 4 µM heparin. The method, then: as §2
HGF, sequence (P14210 32-728 limits assumed): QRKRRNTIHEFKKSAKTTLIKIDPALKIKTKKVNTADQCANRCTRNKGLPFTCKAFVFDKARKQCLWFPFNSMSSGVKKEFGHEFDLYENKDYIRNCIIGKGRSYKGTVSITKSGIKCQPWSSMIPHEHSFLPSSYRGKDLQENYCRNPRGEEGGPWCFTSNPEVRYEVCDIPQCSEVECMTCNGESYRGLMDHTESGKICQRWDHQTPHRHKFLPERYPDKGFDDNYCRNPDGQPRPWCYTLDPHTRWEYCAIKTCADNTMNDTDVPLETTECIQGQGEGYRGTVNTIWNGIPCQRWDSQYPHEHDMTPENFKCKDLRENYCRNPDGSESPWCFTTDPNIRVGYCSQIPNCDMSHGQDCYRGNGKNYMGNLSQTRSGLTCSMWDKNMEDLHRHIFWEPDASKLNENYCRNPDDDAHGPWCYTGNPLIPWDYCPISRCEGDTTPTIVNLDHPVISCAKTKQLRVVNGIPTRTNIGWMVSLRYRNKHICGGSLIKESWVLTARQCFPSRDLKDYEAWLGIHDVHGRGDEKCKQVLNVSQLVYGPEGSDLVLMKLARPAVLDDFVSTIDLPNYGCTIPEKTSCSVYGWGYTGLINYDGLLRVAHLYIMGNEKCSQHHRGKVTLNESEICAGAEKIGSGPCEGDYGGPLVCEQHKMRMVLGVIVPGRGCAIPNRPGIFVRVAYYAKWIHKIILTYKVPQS

T1 sequence (P02769 25-607 limits assumed): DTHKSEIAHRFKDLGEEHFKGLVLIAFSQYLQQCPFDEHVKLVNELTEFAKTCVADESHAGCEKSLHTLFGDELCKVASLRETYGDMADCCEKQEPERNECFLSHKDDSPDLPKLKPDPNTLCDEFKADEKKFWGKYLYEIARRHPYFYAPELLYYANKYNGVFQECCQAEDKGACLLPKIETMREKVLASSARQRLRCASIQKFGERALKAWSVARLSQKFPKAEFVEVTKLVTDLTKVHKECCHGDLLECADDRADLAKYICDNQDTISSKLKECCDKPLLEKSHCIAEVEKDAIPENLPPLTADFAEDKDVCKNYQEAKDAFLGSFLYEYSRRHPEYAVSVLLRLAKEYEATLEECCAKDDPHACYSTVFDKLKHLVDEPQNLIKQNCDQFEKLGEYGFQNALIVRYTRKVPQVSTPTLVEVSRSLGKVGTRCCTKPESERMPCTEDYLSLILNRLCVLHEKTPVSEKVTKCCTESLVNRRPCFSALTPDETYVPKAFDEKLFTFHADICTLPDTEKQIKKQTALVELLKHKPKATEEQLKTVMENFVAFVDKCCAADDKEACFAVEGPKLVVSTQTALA

B1: NT-3 (ligand, UniProt P20783 139-257, looked up)
chain: YAEHKSHRGEYSVCDSESLWVTDKSSAIDIRGHQVTVLGEIKTGNSPVKQYFYETRCKEARPVKNGCRGIDDKHWNSQCKTSQTYVRALTSENNKLVGWRWIRIDTSCVCALSRKIGRT
Molecule B1 registered an equilibrium dissociation constant (Kd) with TNC III1-5 [1] of 0.021 µM. In the assay with TNC III1-5 [2], the koff came out at 0.00106 s⁻¹ and the kon is 50700 M⁻¹ s⁻¹.

B2: PDGF-BB (ligand, UniProt P01127 82-190, looked up)
chain: SLGSLTIAEPAMIAECKTRTEVFEISRRLIDRTNANFLVWPPCVEVQRCSGCCNNRNVQCRPTQVQLRPVQVRKIEIVRKKPIFKKATVTLEDHLACKCETVAAARPVT
notes: The name implies a homodimer of B chains
Consider B2, for which the binding result with BSA [3] was “no binding (tested: 2 nM PDGF-BB)”. Further, the affinity with TNC III1-5 [1], expressed as Kd, was 0.0039 µM. In the assay with TNC III1-5 [2], the koff is 0.0202 s⁻¹ and the on-rate (kon) stood at 5.23e+06 M⁻¹ s⁻¹.

B3: Fg β1-66 (other)
fibrinogen Bβ chain fragment: QGVNDNEEGFFSARGHRPLDKKREEAPSLRPAPPPISGGGYRARPAKAAATQKKVERKAPDAGGCG
notes: production not given
With B3, the binding result with PlGF-1, with FGF-6, in the assay with TGF-β3, with EGF and with BSA [4] was “no binding” in each case.

In the case of B4, the binding result was “no binding (tested: 100 nM)” with FGF-9, “no binding (tested: 1.2 µM)” with BSA [5] and “binds” with HGF.

(Values after US20140011978A1 (EPFL TTO, published 2014).)
